From patent US20120263732A1, “CD40 ANTIBODY FORMULATION AND METHODS” (PFIZER INC., priority 2003, published 2012)
Like-named read-outs stand apart in the source and are kept apart here.

Legend:
[1] = cynomolgus monkey, in vivo
Procedure: The pharmacokinetic properties of an anti-CD40 antibody (21.4.1) were examined in cynomolgus monkeys following intravenous (IV) administration of a single dose of 1, 3, 5 or 10 mg/kg.

[2] = target: T1, CD40 receptors on human leukocytes (Homo sapiens, UniProt P25942); test: 125I-21.4.1 binding to CD40 receptors on human leukocytes; details: 500-fold excess unlabeled 21.4.1; total % specific binding minus % binding to FcR
T1 construct: Human leukocytes from normal donors or cynomolgus leukocytes were isolated from whole blood; endogenous in cells; host or cells: human peripheral blood leukocytes from normal donors
Procedure: (§1) The binding of 21.4.1 to Fc receptors (FcR) on human or cynomolgus peripheral blood leukocytes was determined by using ^125I-21.4.1 and a human IgG1 control mAb. Human leukocytes from normal donors or cynomolgus leukocytes were isolated from whole blood using plasma gel and washed thoroughly to allow dissociation of receptor-bound serum immunoglobulins. Centrifugation through a sucrose cushion was used to separate cell-bound and free antibodies. Studies were performed at 4° C. in the presence of sodium azide to prevent receptor internalization.
(§2) 21.4.1 was tested for specific binding to FcR by using excess unlabeled human IgG2 isotype matched antibody as a competitor. ^125I-21.4.1 specific binding to FcR on human leukocytes (n=5 donors) was −1.0±8.5%, and specific binding to FcR on cynomolgus leukocytes (n=4) was 15±13%. […] The specific binding of the IgG1 control antibody to FcR on human and cynomolgus leukocytes accounted for 56% and 51% of the total bound radioactivity, respectively.

[3] = system: CD40(−) colon carcinoma, Lovo; test: CD40(−) Lovo colon carcinoma growth in SCID-beige mice; type: in vivo, human tumor in SCID-beige mice; details: in the absence of immune cells
Procedure: The effects of a CD40 antibody (21.4.1) on the growth of CD40(−) tumors (e.g., erythroleukemia and colon carcinoma) were examined. In particular, K562 tumors were chosen to assess the efficacy of 21.4.1 against a CD40(−) low immunogenic (class I and II negative) tumor.
SCID-beige mice were injected SC with the CD40(−) erythroleukemic tumor, K562 (ATCC CCL-243) alone or in the presence of human peripheral blood T cells and DCs. Animals received a single IP injection of 21.4.1 either at the time of tumor injection or 5 days later using various dose levels.
The amount of 21.4.1 to cause a 50% inhibition of tumor growth was 0.005 mg/kg corresponding to a Cmax serum concentration of 0.05 μg/mL. […] The results were identical when 21.4.1 was administered on Day 0 or Day +5 relative to tumor challenge. The growth of these CD40(−) tumors was not inhibited by 21.4.1 in the absence of immune cells.

B cell lymphoma Daudi = test: Mortality in systemic Daudi B cell lymphoma model; type: in vivo, human tumor in SCID-beige mice; details: Daudi IV; single IP injection; monitored for 58 days
Procedure: The ability of an anti-CD40 antibody according to the invention (21.4.1) to delay mortality in a CD40(+) systemic tumor model using a B cell lymphoma was assessed.
SCID-beige mice were injected IV with the B cell lymphoma Daudi (ATCC CCL-213). 21.4.1 was administered as a single injection (IP) at the time of tumor injection. Mortality was monitored for 58 days.

[4] = mouse, in vivo
breast tumor, BT 474 = test: Established BT 474 breast tumors: antibody and/or cisplatin; type: in vivo, human tumor in SCID-beige mice; details: single IP injection once tumors reached 200 mm^2; antibody 1 mg/kg, cisplatin 2.5 mg/kg; Day 84
Procedure: The therapeutic effects of an anti-CD40 antibody (21.4.1) in preventing the growth of human breast tumors alone and in the presence of cisplatin was examined.
SCID-beige mice were injected SC with the breast tumor, BT 474. The antibody (1 mg/kg, IP) and/or cisplatin (2.5 mg/kg, IP) were administered as a single injection once tumors reached a size of 200 mm^2. Tumor growth was measured on Day 84 after challenge.

[5] = Serum pharmacokinetics after one injection in SCID-beige mice
[6] = system: lymph node cells obtained from cancer patients; test: Proliferation of cancer patients' lymph node cells stimulated with autologous tumor cells (3H-thymidine); type: cell-based, human; details: antibody 1 μg/mL (6.7 nM); 3H-thymidine 96 hours later
From the text: Effects of a human anti-CD40 antibody (21.4.1) on lymph node cells obtained from cancer patients stimulated with autologous tumor cells was examined.
Lymph node cells and tumors were collected from patients with renal cell carcinoma, non-small cell lung cancer, transitional cell carcinoma of the bladder, colon cancer, prostate cancer, and head and neck cancer. The lymph node cells were placed into culture together with irradiated collagenase treated tumors (recovered from the same patient) in the presence or absence of 21.4.1 (1 μg/mL; 6.7 nM). Proliferation was assessed using ^3H-thymidine 96 hours later. The number of INFγ producing cells was assessed by ELISPOT, following restimulation.

[7] = system: CD40(+) Raji B cell lymphoma; test: CD40(+) Raji B cell lymphoma growth in SCID-beige mice; type: in vivo, human tumor in SCID-beige mice
Procedure: SCID-beige mice were injected subcutaneously with the CD40(+) Raji B cell lymphoma (ATCC CCL-86) (SC) followed by a single dose of 21.4.1 (IP) at the time of tumor injection. Some animals were also injected with human T cells and DC. Tumor growth was assessed on Day 21.

[8] = system: unstimulated human whole blood; test: Whole-blood cytokine release assay
Procedure: An anti-CD40 antibody (21.4.1) was tested for its ability to induce the release of cytokines from unstimulated human whole blood using an in vitro whole blood assay which correlates with induction of antibody-mediated cytokine release in humans. 21.4.1 was tested at 1, 10 and 100 μg/mL, along with a murine anti-human CD3 IgG1 as a positive control that induces cytokine release through an Fc mediated pathway, and LPS as a second positive control that induces cytokines by stimulating macrophages. The donors used included individuals that responded to both the murine antibody and LPS (4 donors), as well as individuals who only responded to the LPS (3 donors). Heparinized whole blood was cultured with 21.4.1 for 5 hours and plasma was collected and analyzed for tumor necrosis factor alpha (TNF-α), interferon gamma (INF-γ) and interleukin-6 (IL-6) by ELISA (using commercially available kits). Cultures were also incubated for 48 hours and analyzed for interleukin-1 beta (IL-1β).

[9] = system: Fc receptors (FcR) on human peripheral blood leukocytes; test: 125I-antibody binding to Fc receptors on human leukocytes; details: 125I-labelled antibody; 4° C., sodium azide; 21.4.1: excess unlabeled human IgG2 competitor, n=5 donors
Procedure: The binding of an anti-CD40 antibody (21.4.1) to Fc receptors on human and cynomolgus leukocytes was examined.
as §1, §2

T1 sequence (P25942 21-277): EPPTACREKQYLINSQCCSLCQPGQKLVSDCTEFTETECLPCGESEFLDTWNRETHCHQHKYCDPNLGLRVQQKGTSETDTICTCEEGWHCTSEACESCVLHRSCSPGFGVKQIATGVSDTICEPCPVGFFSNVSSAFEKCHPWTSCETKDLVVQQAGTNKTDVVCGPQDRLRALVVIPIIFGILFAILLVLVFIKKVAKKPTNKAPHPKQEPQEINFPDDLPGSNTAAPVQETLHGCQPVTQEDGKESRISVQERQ

## 21.4.1: human agonist anti-CD40 antibody; amino acid sequences SEQ ID NOs:5-8; hybridoma deposit PTA-3605
[1]
  duration of exposure of ≧0.1 μg/mL: 4 days
[1]; iv
  volume of distribution at steady state, mean of different doses: 0.0575 L/kg
[1]; iv, 1 mg/kg
  AUC(0-∞): 298 µg·h/mL
  CL: 3.81 mL/h/kg
  Cmax: ~20000 ng/mL
  Vdss: 0.0757 L/kg
  t1/2: 18 h
[1]; iv, 3 mg/kg
  AUC(0-∞): 2460 µg·h/mL
  CL: 1.28 mL/h/kg
  Vdss: 0.0459 L/kg
  t1/2: 33.6 h
[1]; iv, 5 mg/kg
  AUC(0-∞): 4790 µg·h/mL
  CL: 1.04 mL/h/kg
  Vdss: 0.0488 L/kg
  t1/2: 33.6 h
[1]; iv, 10 mg/kg
  AUC(0-∞): 12500 µg·h/mL
  CL: 0.798 mL/h/kg
  Vdss: 0.0529 L/kg
  apparent mean elimination half-life, range over doses: 18 to 48 h
  systemic clearance, range over doses: 0.798 to 3.81 mL/h/kg
  t1/2: 48 h
  volume of distribution at steady state, range over doses: 0.0459 to 0.0757 L/kg
[2]
  specific binding to CD40 receptors on human leukocytes: 49%
[3]
  growth of Lovo tumor: not inhibited
B cell lymphoma Daudi
  mortality induced by systemically administered tumor cell line: prevented mortality
[4]
  T1/2: > 720 h
Breast tumor, BT 474
  tumor growth, single agent: prevented tumor growth
[5]; corresponding to 0.001 mg/kg single IP
  Cmax serum concentration: 10 ng/mL
[5]; corresponding to 0.005 mg/kg single IP
  Cmax serum concentration: 50 ng/mL
[5]; corresponding to 0.02 mg/kg single IP
  Cmax serum concentration: 200 ng/mL
[6]
  proliferation of lymph node cells in response to tumor antigen, enhancement: 3-4 fold
[7]; Raji
  anti-tumor activity against CD40(+) tumors when immune cells were present: enhanced
[7]; Raji co-injected with immune cells (human T cells and DC), single IP dose, Day 21
  amount necessary to cause a 50% inhibition of tumor growth: 0.001 mg/kg
[7]; Raji in the absence of immune cells, single IP dose, Day 21
  amount to cause a 50% inhibition of tumor growth (IC50): 0.02 mg/kg
[7]; Raji, with vs without immune cells
  decrease of the 50% inhibitory amount when immune cells co-injected: 20 fold
[8]; 100 μg/mL, only one donor, 5 hours
  IL-6 in plasma: 90 pg/mL
[8]; 1 or 10 μg/mL 21.4.1, ELISA
  cytokines in plasma of human blood: not detected
[8]; any of the samples, 1, 10 and 100 μg/mL
  elevation of INFγ or IL-1β: no elevation
[8]; same donor re-tested subsequently
  induction of TNF-α or IL-6 on re-test: no detectable induction
[9]
  specific binding to FcR on human leukocytes: −1.0±8.5%
